Measurements from US9266964.

B1: M28-F01 (Fab, V domains shown)
VH: EVQLLESGGGLVQPGGSLRLSCAASGFTFSVYLMHWVRQAPGKGLEWVSGISPSGGYTQYADSVKGRFTISRDNSKNTLYLQMNSLRAEDTAVYYCARPGGLDAFDIWGQGTMVTVSS
VL: DIQMTQSPSSLSASVGDRVTITCRASQSINTYLNWYQQKPGKAPKVLIHAASTLESGVPSRFSGSGSGTDFTLTISSLQPEDFATYYCQQSYSTPPTFGQGTKVEIK
B2: M29-E02 (Fab, V domains shown)
VH: EVQLLESGGGLVQPGGSLRLSCAASGFTFSRYPMMWVRQAPGKGLEWVSVIYPSGGDTFYADSVKGRFTISRDNSKNTLYLQMNSLRAEDTAVYYCASGDDYLWEAAVYWGQGTLVTVSS
VL: QSVLTQPPSVSEAPRQRVTISCSGSSSNIGNNAVSWYQQLPGKAPKLLIYYDDLLPSGVSDRFSGSKSGTSASLAISGLRSEDEADYYCAAWDDSLNGFVFGTGTKVTVL

Target: human plasma kallikrein (human) (UniProt P03952)
Sequence (P03952 20-390, chain 1 of 2): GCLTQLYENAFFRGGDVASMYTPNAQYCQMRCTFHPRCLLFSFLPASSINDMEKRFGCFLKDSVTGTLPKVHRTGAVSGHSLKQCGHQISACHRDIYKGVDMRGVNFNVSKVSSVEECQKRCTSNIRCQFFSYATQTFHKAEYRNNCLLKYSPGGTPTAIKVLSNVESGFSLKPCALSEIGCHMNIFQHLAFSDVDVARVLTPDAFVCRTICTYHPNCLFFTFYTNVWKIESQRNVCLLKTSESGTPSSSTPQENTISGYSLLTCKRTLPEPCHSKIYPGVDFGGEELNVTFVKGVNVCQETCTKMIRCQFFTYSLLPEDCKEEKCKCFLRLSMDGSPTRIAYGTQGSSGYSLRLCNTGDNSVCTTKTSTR
Sequence (P03952 391-638, chain 2 of 2): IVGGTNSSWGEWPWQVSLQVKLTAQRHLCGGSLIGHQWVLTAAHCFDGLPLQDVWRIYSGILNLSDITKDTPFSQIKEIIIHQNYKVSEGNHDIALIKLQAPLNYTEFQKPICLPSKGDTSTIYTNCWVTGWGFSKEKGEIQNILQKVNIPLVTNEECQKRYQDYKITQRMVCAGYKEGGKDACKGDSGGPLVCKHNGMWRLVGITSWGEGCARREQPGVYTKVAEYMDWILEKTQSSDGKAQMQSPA
Experiment: ELISA; signal on coated biotinylated human plasma kallikrein divided by signal on streptavidin; Fab

Row | Binder | Human pKal ELISA (T/B) (T/B (target signal / background signal))
1 | B1 | 1.5
2 | B2 | 2
